This is an account of results in PMC4840320 (Scientific Reports, 2016).

B2: His-tagged ARL-3 (natural protein, C. elegans, UniProt O45379 1-184, looked up)
chain: MGLIDVLKSFKSPSGREIRILLLGLDNAGKTTILKQLSSEDVQHVTPTKGFNVKTVAAMGDIRLNVWDIGGQRSIRPYWSNYYENIDTLIFVIDSNDKKRFDEMNIELGELLDEEKLRKVPVLIFANKQDLVTAASSEEITRKLNLDLLRDRTWHIQACSALKNEGINDGITWVASNLKPASKK
notes: ARL-3, small GTPase of C. elegans, wild type; the methods speak of full-length and/or truncated cDNAs, and no truncation of ARL-3 is named; also called His-ARL-3; source: E. coli BL21, purified (His resin); not shown: His, N-terminal, kept

In the experiment “His-tagged ARL-3” the target is B2. Briefly: cell-based or functional assay.
The target of experiment [1] is T1, UNC-119, recombinant, as used in the GST pull-downs with ARL-3 and its variants (C. elegans, UniProt Q10658 1-219).
T1 construct: if it carried the His tag it is the same construct as m6 and ARL-3 was GST-fused; source: E. coli BL21, purified (His resin or glutathione sepharose)
T1 sequence (Q10658 whole entry, change not shown, the tested form may be a part): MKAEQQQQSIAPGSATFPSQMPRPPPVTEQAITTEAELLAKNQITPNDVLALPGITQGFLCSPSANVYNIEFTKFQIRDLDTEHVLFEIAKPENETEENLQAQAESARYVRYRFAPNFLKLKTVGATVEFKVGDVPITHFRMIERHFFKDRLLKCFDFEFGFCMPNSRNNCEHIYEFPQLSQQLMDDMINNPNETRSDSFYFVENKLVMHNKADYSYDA
Kind of experiment: pull-down; GST pull-down: His-tagged protein incubated with GST-tagged protein immobilised on glutathione sepharose; 25 mM Tris-HCl pH 7.4, 150 mM NaCl, 0.5% Triton X-100, 1 mM DTT, 10% glycerol, 4 hours at 4 °C; six washes; anti-His immunoblot. As to conditions: both partners purified. For orientation: In western blotting, separated proteins are transferred to a membrane and probed.

B1: GST-fused full length ARL-13 (FL) (natural protein, C. elegans, UniProt H2L0N8-2 1-367, looked up)
chain: MTEKSWFETIFCCCCHRTPIIRREIKLGCFGIGSAGKTTFLKVLKGEDPRDLLRTNGFSTVKMEYDETFHLTIYDVGGDKGIRGIWSNYYAEVHGIIYVIDYSTDETFTESIEALHSLTSNPHVQKKPIFLLLNNQNNREFDDVEISNETKIQAGQHKIVLFSHFNKYNGYLDNIKSATLTVMARAKKDRNEYQEQFVRFIDSISEHYVELSEGVKTAELALRIRQEEAKEQRRLMQMKVEHDALKADVAGLELRNQPPVQPPIPPDPPSDPKSASVHIEESPPMSLASSTIPSDIIQSTPETGTPRDPVKISQTSTKPVSPESNSVKEEPTIILKDNYFLPPKAPGRQYSRIQRIQNVLNNRVVPK
On to B1, for which the “mantGDP release from GDP-preloaded ARL-3 (in vitro GEF assay), ARL-13 from one-tenth molar (~2 fold) to a 1:1 molar ratio” value with His-tagged ARL-3 was about 7 fold.

As to B2, in experiment [1], the binding result is given as “binds”.

B3: ARL-3 dominant active (DA, Q72L) variant, recombinant (natural protein, C. elegans, UniProt O45379 1-184, looked up)
chain: MGLIDVLKSFKSPSGREIRILLLGLDNAGKTTILKQLSSEDVQHVTPTKGFNVKTVAAMGDIRLNVWDIGGLRSIRPYWSNYYENIDTLIFVIDSNDKKRFDEMNIELGELLDEEKLRKVPVLIFANKQDLVTAASSEEITRKLNLDLLRDRTWHIQACSALKNEGINDGITWVASNLKPASKK
notes: ARL-3, C. elegans, dominant active variant Q72L; also called ARL-3 DA; source: E. coli BL21, purified (His resin or glutathione sepharose)
B3: in experiment [1], the binding result is listed as “binds”.

B4: ARL-3 dominant negative (DN, T31N) variant, recombinant (natural protein, C. elegans, UniProt O45379 1-184, looked up)
chain: MGLIDVLKSFKSPSGREIRILLLGLDNAGKNTILKQLSSEDVQHVTPTKGFNVKTVAAMGDIRLNVWDIGGQRSIRPYWSNYYENIDTLIFVIDSNDKKRFDEMNIELGELLDEEKLRKVPVLIFANKQDLVTAASSEEITRKLNLDLLRDRTWHIQACSALKNEGINDGITWVASNLKPASKK
notes: ARL-3, C. elegans, dominant negative variant T31N; also called ARL-3 DN; ARL-3DN (T31N); source: E. coli BL21, purified (His resin or glutathione sepharose)
With B4, the binding result in experiment [1] is on record as “binds”.
